From patent publication US20260139017A1, “COMPOSITIONS AND METHODS USING REELIN IN ALZHEIMER'S DISEASE” (The General Hospital Corporation, priority 2022, published 2026)
“Also recorded” adds a separate entry of the source.

Columns and labels:
SH-SY5Y cells = assay: Lactate dehydrogenase assay in SH-SY5Y cells treated with oligomeric Tau; format: cell-based
Description: A lactate dehydrogenase assay was performed in SH-SY5Y cells treated 24 h with pre-formed oligomeric Tau (oTau) either alone or in the presence of C-term RELN WT (184I). The lactate dehydrogenase assay was performed as follows. 100 k neuroblastoma (SH-SY5Y, ATCC) cells/well were plated in 96-well TC treated plates in growth media (DMEM/F12, Gibco, 10% heat-inactivated FBS, R&D, 200 ug normocin) and allowed to attach and grow overnight. Next day, test compounds were allowed to thaw on wet ice. Phenol-free and serum free DMEM/F12 no serum no antibiotic media was warmed and a 50 mL aliquot was sterile filtered (0.22 um) as test media. In TC cabinet, thawed test compounds were mixed via pipetting then added to final concentration for each test condition in filtered test media and mixed through pipetting. Test conditions were allowed to pre-incubate for 15 mins at RT in TC cabinet. Wells were gently aspirated and gently washed with 200 uL prewarmed Test media, then gently aspirated and 100 μL of test conditions were added and allowed to incubate in TC incubator at 5% CO2 for 21 hrs. LDH performed using Roche kit according to manufacturer's protocol.

NRP1 = molecular target: T1, NRP1 (Homo sapiens, UniProt O14786); assay: Bio-layer interferometry (BLI) of CTR-RELN-NRP-1 interactions; format: binding; conditions: immobilized biotinylated NRP1
T1 construct: purchased R&D 3870-N1-025
T1 sequence (O14786 22-644 isoform O14786-2 limits assumed): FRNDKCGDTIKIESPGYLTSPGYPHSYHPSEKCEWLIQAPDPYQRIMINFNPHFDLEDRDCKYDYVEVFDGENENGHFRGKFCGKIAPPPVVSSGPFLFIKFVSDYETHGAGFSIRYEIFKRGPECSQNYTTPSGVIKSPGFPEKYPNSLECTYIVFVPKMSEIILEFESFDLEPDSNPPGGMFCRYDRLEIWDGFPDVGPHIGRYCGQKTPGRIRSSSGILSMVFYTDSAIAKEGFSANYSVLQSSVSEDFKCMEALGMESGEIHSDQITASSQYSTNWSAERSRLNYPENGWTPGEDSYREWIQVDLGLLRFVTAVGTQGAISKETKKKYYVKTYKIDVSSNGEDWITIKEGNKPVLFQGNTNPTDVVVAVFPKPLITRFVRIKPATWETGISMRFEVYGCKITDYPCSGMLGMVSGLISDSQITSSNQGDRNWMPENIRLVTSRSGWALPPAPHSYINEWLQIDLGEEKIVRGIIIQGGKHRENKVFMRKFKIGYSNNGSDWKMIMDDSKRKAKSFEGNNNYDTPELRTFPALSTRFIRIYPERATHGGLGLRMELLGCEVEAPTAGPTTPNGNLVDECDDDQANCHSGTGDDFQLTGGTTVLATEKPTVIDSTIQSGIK
Description: (§1) Bio-layer interferometry (BLI) was additionally used to assess NRP1-protein kinetics at 30° C. and 1000 rpm agitation. 1 mg/mL NRP1 (R&D 3870-N1-025) was biotinylated at a 1:2 molar ratio, desalted, and immobilized on the SA biosensor tip (Pall ForteBio) surface. This was followed by 1) 180 seconds baseline buffer diluent, 2) loading of the ligand (NRP1), 3) 180 seconds baseline buffer diluent, 4) 240 seconds association (analyte), and 5) 300 seconds disassociation in assay buffer. Assay buffer: SD Buffer (pH7.4 PBS, 0.05% tween20, 0.01% BSA).
The experimental data were fit with the 1:1 binding model and analyzed with global fitting using Octet Data Analysis software to calculate KD.
as §1, with “was” for “was additionally”, “agitation using previously published methods.” for “agitation.”

ka (NRP1): 9400 M⁻¹ s⁻¹ | kd (NRP1): 0.00573 s⁻¹
B1: pfcn-huIgG2-C-termH3447WT (protein)
chain: MYRMQLLSCIALSLALVTNSAPLERKSSVECPPCPAPPVAGPSVFLFPPKPKDTLMISRTPEVTCVVVDVSHEDPEVQFNWYVDGVEVHNAKTKPREEQFNSTFRVVSVLTVVHQDWLNGKEYKCKVSNKGLPAPIEKTISKTKGQPREPQVYTLPPSREEMTKNQVSLTCLVKGFYPSDIAVEWESNGQPENNYKTTPPMLDSDGSFFLYSKLTVDKSRWQQGNVFSCSVMHEALHNHYTQKSLSLSPGARTSTRKQNYMMNFSRQHGLRHFYNRRRRSLRRYP
cytotoxicity of construct (LDH) (SH-SY5Y cells): did not show any cytotoxicity | oligomeric Tau-induced cytotoxicity (LDH) (SH-SY5Y cells; oTau with construct): reduction of oTau-derived cytotoxicity; also recorded: Reduced oligomeric Tau-induced cytotoxicity
